From PMC2821923, “Visualizing Interactions along the Escherichia coli Twin-Arginine Translocation Pathway Using Protein Fragment Complementation” (PLoS ONE, 2010)
Values belong to the molecule of their own block, whether it stands above or below them.

Tests used:
[1] = biological target: TatB fused to a YFP fragment (TatB-Y1; TatB-Y2) (E. coli) (UniProt P69425); experiment: split reporter (BiFC, NanoBiT); split YFP BiFC in living TG1 ΔtatABCE cells (TatA also in ΔtatAE, TatB/TatC also in ΔtatB and ΔtatC); median fluorescence by flow cytometry against unfused Y1 or Y2 controls, fluorescence microscopy
[2] = biological target: TatC fused to a YFP fragment (TatC-Y1; TatC-Y2) (E. coli) (UniProt P69423); experiment: as above
[3] = biological target: TatC(E103R) fused to a YFP fragment (E103R-Y1; E103R-Y2) (E. coli) (UniProt P69423); experiment: as above
[4] = biological target: TatC(P48A) fused to a YFP fragment (P48A-Y1; P48A-Y2) (E. coli) (UniProt P69423); experiment: as above
[5] = biological target: DmsA-Y1 (entire DmsA enzyme fused to the N-terminal YFP fragment) (E. coli) (UniProt P18775); experiment: split reporter (BiFC, NanoBiT); split YFP (Y1 1-154, Y2 155-238) BiFC in living E. coli TG1 cells (wt; also ΔtatE, ΔtatB, ΔtatC, ΔtatAE, ΔtatABCE); 1 mM IPTG, 8 h at room temperature; median cell fluorescence by flow cytometry, normalised to ssDmsA-Y1/DmsD-Y2, and fluorescence microscopy; substrate or signal peptide with …
[6] = biological target: ssDmsA-Y1 (DmsA signal peptide fused to the N-terminal YFP fragment) (E. coli); experiment: as above
[7] = biological target: the molecule itself; experiment: split reporter (BiFC, NanoBiT); split YFP BiFC in living TG1 ΔtatABCE cells (TatA also in ΔtatAE, TatB/TatC also in ΔtatB and ΔtatC); median fluorescence by flow cytometry against unfused Y1 or Y2 controls, fluorescence microscopy

BiFC signal, fold above background [1]: 5.4 fold
BiFC signal, fold above background [2]: 10.7 fold
Molecule: ssDmsA(KK)-Y1 (domain or fragment)

BiFC signal, fold above background [1]: 3.5 fold
BiFC signal, fold above background [2]: 7 fold
BiFC signal, fold less than with wt TatC [3]: 2 fold
BiFC signal, fold less than with wt TatC [4]: 2 fold
Molecule: ssDmsA-Y1 (DmsA signal peptide fused to the N-terminal YFP fragment) (domain or fragment)

The remaining lines, values behind:

Molecule: DmsD fused to a YFP fragment (DmsD-Y2; DmsD-Y1) (from UniProt P69853 1-204) (natural protein)
BiFC signal relative to the ssDmsA-Y1/DmsD-Y2 pair [5]: 50%
DmsA binding activity ([5]; scale: relative): 0.62
BiFC fluorescence, fold over background (unfused Y1 with DmsD-Y2) [6]: 5 fold
median fluorescence (M) [6]: 2250
ssDmsA binding activity ([6]; scale: relative): 1

B1: TatA(F39A) fused to a YFP fragment (F39A-Y1; F39A-Y2) (natural protein, E. coli, UniProt P69428 1-89, looked up)
chain: MGGISIWQLLIIAVIVVLLFGTKKLGSIGSDLGASIKGAKKAMSDDEPKQDKTSQDADFTAKTIADKQADTNQEQAKTEDAKRHDKEQV
notes: TatA, E. coli, full length, with F39A in the predicted amphipathic region; also called TatA(F39A)-Y1; TatA(F39)-Y2; source: E. coli TG1 ΔtatABCE (also TG1 ΔtatAE), co-expressed from plasmids pF39A-Y1 and pF39A-Y2, in living cells
BiFC signal relative to the wt TatA homo-oligomers [7]: ~2 fold
